# *: point of attachment. AMC = Cc1cc(=O)oc2cc(N*)ccc12
# Biological target: T1, Set9 (Homo sapiens, UniProt Q8WTS6)
# T1 sequence (Q8WTS6 1-366): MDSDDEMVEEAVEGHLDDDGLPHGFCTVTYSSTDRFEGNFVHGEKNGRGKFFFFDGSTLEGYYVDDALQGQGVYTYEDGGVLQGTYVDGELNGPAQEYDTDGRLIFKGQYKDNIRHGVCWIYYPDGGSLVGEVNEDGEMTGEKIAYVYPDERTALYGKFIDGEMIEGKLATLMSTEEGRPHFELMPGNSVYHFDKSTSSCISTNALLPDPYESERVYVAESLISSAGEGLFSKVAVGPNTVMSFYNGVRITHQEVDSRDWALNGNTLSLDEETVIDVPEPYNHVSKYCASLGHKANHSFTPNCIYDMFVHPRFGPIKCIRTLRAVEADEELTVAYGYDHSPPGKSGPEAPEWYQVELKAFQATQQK
# Assay: Western blot evaluation of histone methyltransferase inhibitor, Set9
# Format: biochemical
# Conditions: FIG. 17
# Description: To examine whether the activity of a histone methyltransferase inhibitor could be evaluated by an assay for measuring histone methyltransferase activity using a peptidyl MCA, the assay for measuring histone methyltransferase activity was attempted. However, the activity of gliotoxin as a histone methyltransferase inhibitor was evaluated by Western blot, prior to the assay for measuring histone methyltransferase activity. Gliotoxin is known not to inhibit the methylation activity of Set9 but to inhibit the methylation activity of G9a. […] The following assay for measuring histone methyltransferase activity was carried out in order to examine whether the same results as those from the Western blot could also be obtained from the assay for measuring histone methyltransferase activity.
row,Molecule,inhibition of the methylation of Set9 (Western blot)
1,CN1C(=O)[C@]23CC4=CC=C[C@H](O)[C@H]4N2C(=O)[C@@]1(CO)SS3 [gliotoxin],did not inhibit

# Biological target: T2, Set9 (His-Set9, His-Set7/9) (Homo sapiens, UniProt Q8WTS6)
# T2 sequence (Q8WTS6 1-366): T1 sequence (Q8WTS6 1-366)
# Assay: Substrate specificity / methylation of peptidyl MCAs by Set9
# Format: biochemical
# Conditions: Example 6; His-Set9 0-1.5 μg/μL; right panel of FIG. 14
# Description: When Set9 was adopted as a histone methyltransferase, the following method was used. 10 μL of 2×HMT buffer (100 mM Tris-HCl (pH 8.5), 20 mM MgCl2, 40 mM KCl, 20 mM 2-mercaptoethanol, 500 mM sucrose), 2 μL of a BSA solution (30 μg/mL), 3 μL of His-Set9 (0, 0.33 to 10 μg/μL), and 1 μL of distilled water were mixed and then incubated at room temperature for 1 hour. Then, 2 μL of SAM (10 mM) and 2 μL of a peptidyl MCA solution (0.6 mM) were added thereto, which was then incubated at 37° C. for 1 hour. Thereafter, 30 μL of a trypsin solution (20 mg/mL) was added thereto, followed by incubation at 37° C. for 15 minutes. Then, the fluorescence intensity of the solution was measured at an excitation wavelength (λex) of 390 nm and a fluorescence wavelength (λem) of 460 nm. The final concentration of His-Set9 during the measurement of fluorescence intensity was 0, 0.05, 0.15, 0.5, or 1.5 μg/μL. The results of the assay for measuring histone methyltransferase activity are shown in the right panel of FIG. 14.
# When Set9 was adopted as a histone methyltransferase, the following method was used. 10 μL of 2×HMT buffer (100 mM Tris-HCl (pH 8.5), 20 mM MgCl2, 40 mM KCl, 20 mM 2-mercaptoethanol, 500 mM sucrose), 0.4 μL of a BSA solution (150 μg/mL), 5.9 μL of His-Set9 (0, 0.051, 0.17, 0.51, 1.7 μg/μL), and 1.7 μL of distilled water were mixed and then incubated at room temperature for 1 hour. Then, 1 μL of SAM (20 mM) and 1 μL of a peptidyl MCA solution (1.2 mM) were added thereto, which was then incubated at 37° C. for 1 hour. Thereafter, 30 μL of a trypsin solution (20 mg/mL) was added thereto, followed by incubation at 37° C. for 15 minutes. Then, the fluorescence intensity of the solution was measured at an excitation wavelength (λex) of 390 nm and a fluorescence wavelength (λem) of 460 nm. The final concentration of His-Set9 during the measurement of fluorescence intensity was 0, 0.015, 0.05, 0.15, or 0.5 μg/μL. The results of the assay for measuring histone methyltransferase activity are shown in the right panel of FIG. 16.
# When Set7/9 was adopted as a histone methyltransferase, the following method was used. 10 μL of 2×HMT buffer (100 mM Tris-HCl (pH 8.5), 20 mM MgCl2, 40 mM KCl, 20 mM 2-mercaptoethanol, 500 mM sucrose), 0.4 μL of a BSA solution (150 μg/mL), 4 µL of His-Set7/9 (0, 0.025 to 0.75 μg/μL), and 3.6 μL of distilled water were mixed and then incubated at room temperature for 1 hour. Then, 1 μL of SAM (final concentration: 0.1 mM) and 1 μL of a peptidyl MCA solution (1.2 mM) were added thereto, which was then incubated at 37° C. for 1 hour. Thereafter, 30 μL of a trypsin solution (20 mg/mL) was added thereto, followed by incubation at 37° C. for 15 minutes. Then, the fluorescence intensity of the solution was measured at an excitation wavelength (λex) of 330 nm and a fluorescence wavelength (λem) of 380 nm or at an excitation wavelength (λex) of 390 nm and a fluorescence wavelength (λem) of 460 nm. The final concentration of His-Set7/9 during the measurement of fluorescence intensity was 0, 0.005, 0.015, 0.05, or 0.15 μg/μL.
row,Molecule,methylation of peptidyl MCA by Set9
1,Ac-QLATKAARK-MCA (Ac-QLATKAARK-{AMC}; SMILES CC(=O)N[C@@H](CCC(N)=O)C(=O)N[C@@H](CC(C)C)C(=O)N[C@@H](C)C(=O)N[C@H](C(=O)N[C@@H](CCCCN)C(=O)N[C@@H](C)C(=O)N[C@@H](C)C(=O)N[C@@H](CCCNC(=N)N)C(=O)N[C@@H](CCCCN)C(=O)Nc1ccc2c(C)cc(=O)oc2c1)[C@@H](C)O; listed as Homo sapiens) [Ac-histone H3 (19-27)-MCA],little methylation occurred
2,Ac-KAARK-MCA (Ac-KAARK-{AMC}; SMILES CC(=O)N[C@@H](CCCCN)C(=O)N[C@@H](C)C(=O)N[C@@H](C)C(=O)N[C@@H](CCCNC(=N)N)C(=O)N[C@@H](CCCCN)C(=O)Nc1ccc2c(C)cc(=O)oc2c1; listed as Homo sapiens) [Ac-histone H3 (23-27)-MCA],little methylation occurred
3,Ac-LKSK-MCA (Ac-LKSK-{AMC}; SMILES CC(=O)N[C@@H](CC(C)C)C(=O)N[C@@H](CCCCN)C(=O)N[C@@H](CO)C(=O)N[C@@H](CCCCN)C(=O)Nc1ccc2c(C)cc(=O)oc2c1; listed as Homo sapiens) [Ac-p53 (369-372)-MCA],methylation often occurred
4,Ac-ARTKQTARK-MCA [Ac-histone H3 (1-9)-MCA],little methylation occurred
5,Ac-ARTK-MCA (Ac-ARTK-{AMC}; SMILES CC(=O)N[C@@H](C)C(=O)N[C@@H](CCCNC(=N)N)C(=O)N[C@H](C(=O)N[C@@H](CCCCN)C(=O)Nc1ccc2c(C)cc(=O)oc2c1)[C@@H](C)O; listed as Homo sapiens) [Ac-histone H3 (1-4)-MCA],methylation often occurred
6,"Ac-ARK-MCA (Ac-Ala-Arg-Lys-{AMC}; SMILES CC(=O)N[C@@H](C)C(=O)N[C@@H](CCCNC(=N)N)C(=O)N[C@@H](CCCCN)C(=O)Nc1ccc2c(C)cc(=O)oc2c1; listed as Homo sapiens) [Ac-histone H3 (7-9/25-27)-MCA, acetyl-ARK (human histone H3 7-9 or 25-27)-MCA substrate]",little methylation occurred
7,Ac-QTARK-MCA [Ac-histone H3 (5-9)-MCA],little methylation occurred

# Same assay, conditions: Example 13; AMC and peptidyl MCA fluorescence; FIGS. 25 and 26
row,Molecule,methylation of peptidyl MCA by His-Set7/9
1,Ac-ARTKQTARK-MCA [Ac-histone H3 (1-9)-MCA],does not methylate
2,Ac-KRSK-MCA (Ac-KRSK-{AMC}; SMILES CC(=O)N[C@@H](CCCCN)C(=O)N[C@@H](CCCNC(=N)N)C(=O)N[C@@H](CO)C(=O)N[C@@H](CCCCN)C(=O)Nc1ccc2c(C)cc(=O)oc2c1; listed as Homo sapiens) [Ac-ERα (299-302)-MCA],methylates
